Measurements: publication PMC13397619

B1: NLV2 TCR alpha chain (CDR3α only) (parent)
chain: AGPMKTSYDKVI

Variants of: B1
Assay: T-Switch: Jurkat TCRβ−/− cells expressing a CDR3 saturation-mutagenesis library, stained with two peptide-HLA-A*02:01 tetramers (original and novel peptide) plus anti-CD3, FACS-sorted into four gates, gDNA sequenced
Conditions: tetramers 1 µg/mL, 30 min on ice, SP, DP and SW gates expanded about 10 days between rounds ('two to three rounds of selection' in the Methods), unresolved parent, parent is a CDR3 fragment, scale: fold enrichment, numbering: sequential-on-construct, sequence starts at 1
[1] = with both tetramers (double-negative gate, binds neither): HLA-A*02:01 with … and with …, gate DN: OPPOSITE: higher = more of the variant in the gate that binds neither peptide = LESS binding (or no expression; inferred). Fold enrichment of the CDR3 variant in one FACS gate of a two-tetram
[2] = with both tetramers (double-positive gate): HLA-A*02:01 with … and with …, gate DP: higher = more of the variant in the gate that binds both peptides. Fold enrichment of the CDR3 variant in one FACS gate of a two-tetramer stain. SP/DP/SW gates were expanded and re-sorted bef

Variant […] (CDR3 as printed); G2C derived by comparing it with the table's wild-type CDR3 AGPMKTSYDKVI has an enrichment [1] of 0.956 and an enrichment [2] of 0.

[…] (CDR3 as printed); T6H derived by comparing it with the table's wild-type CDR3 AGPMKTSYDKVI showed an enrichment [1] of 1.22 and an enrichment [2] of 0.

With […] (CDR3 as printed); V11N derived by comparing it with the table's wild-type CDR3 AGPMKTSYDKVI the enrichment [1] was 1.11 and the enrichment [2] was 0.

[…] (CDR3 as printed); K5I derived by comparing it with the table's wild-type CDR3 AGPMKTSYDKVI gave an enrichment [1] of 1.56 and an enrichment [2] of 0.

[…] (CDR3 as printed); I12N derived by comparing it with the table's wild-type CDR3 AGPMKTSYDKVI gave an enrichment [1] of 1.04 and an enrichment [2] of 0.

Work on […] (CDR3 as printed); P3E derived by comparing it with the table's wild-type CDR3 AGPMKTSYDKVI yielded an enrichment [1] of 1.15 and an enrichment [2] of 0.

[…] (CDR3 as printed); G2N derived by comparing it with the table's wild-type CDR3 AGPMKTSYDKVI gave an enrichment [1] of 0.848 and an enrichment [2] of 0.

[…] (CDR3 as printed); K10M derived by comparing it with the table's wild-type CDR3 AGPMKTSYDKVI showed an enrichment [1] of 1.08 and an enrichment [2] of 0.

[…] (CDR3 as printed); G2E derived by comparing it with the table's wild-type CDR3 AGPMKTSYDKVI showed an enrichment [1] of 0.844 and an enrichment [2] of 0.

Variant […] (CDR3 as printed); T6M derived by comparing it with the table's wild-type CDR3 AGPMKTSYDKVI has an enrichment [1] of 1.45 and an enrichment [2] of 0.

[…] (CDR3 as printed); K10P derived by comparing it with the table's wild-type CDR3 AGPMKTSYDKVI gave an enrichment [1] of 0.876 and an enrichment [2] of 0.

[…] (CDR3 as printed); M4I derived by comparing it with the table's wild-type CDR3 AGPMKTSYDKVI showed an enrichment [1] of 0.318 and an enrichment [2] of 0.

[…] (CDR3 as printed); A1N derived by comparing it with the table's wild-type CDR3 AGPMKTSYDKVI gave an enrichment [1] of 0.847 and an enrichment [2] of 0.

[…] (CDR3 as printed); T6C derived by comparing it with the table's wild-type CDR3 AGPMKTSYDKVI gave an enrichment [1] of 0.924 and an enrichment [2] of 0.

Variant […] (CDR3 as printed); V11F derived by comparing it with the table's wild-type CDR3 AGPMKTSYDKVI has an enrichment [1] of 1.29 and an enrichment [2] of 0.

For […] (CDR3 as printed); Y8T derived by comparing it with the table's wild-type CDR3 AGPMKTSYDKVI, the enrichment [1] was 1.15 and the enrichment [2] was 0.

For […] (CDR3 as printed); Y8V derived by comparing it with the table's wild-type CDR3 AGPMKTSYDKVI, the enrichment [1] was 1.48 and the enrichment [2] was 0.

For […] (CDR3 as printed); M4Y derived by comparing it with the table's wild-type CDR3 AGPMKTSYDKVI, the enrichment [1] was 1.15 and the enrichment [2] was 0.

Work on […] (CDR3 as printed); P3Y derived by comparing it with the table's wild-type CDR3 AGPMKTSYDKVI yielded an enrichment [1] of 1.08 and an enrichment [2] of 0.

In the case of […] (CDR3 as printed); V11I derived by comparing it with the table's wild-type CDR3 AGPMKTSYDKVI, the enrichment [1] is reported as 0.74 and the enrichment [2] is reported as 0.

Variant […] (CDR3 as printed); S7Q derived by comparing it with the table's wild-type CDR3 AGPMKTSYDKVI has an enrichment [1] of 0.986 and an enrichment [2] of 0.

For […] (CDR3 as printed); M4V derived by comparing it with the table's wild-type CDR3 AGPMKTSYDKVI, the enrichment [1] was 0.322 and the enrichment [2] was 0.

[…] (CDR3 as printed); G2Q derived by comparing it with the table's wild-type CDR3 AGPMKTSYDKVI was tested, and the enrichment [1] was 0.677 and the enrichment [2] was 0.

[…] (CDR3 as printed); V11P derived by comparing it with the table's wild-type CDR3 AGPMKTSYDKVI showed an enrichment [1] of 0.923 and an enrichment [2] of 0.

[…] (CDR3 as printed); I12P derived by comparing it with the table's wild-type CDR3 AGPMKTSYDKVI showed an enrichment [1] of 1.18 and an enrichment [2] of 0.

Variant […] (CDR3 as printed); T6W derived by comparing it with the table's wild-type CDR3 AGPMKTSYDKVI has an enrichment [1] of 1.07 and an enrichment [2] of 0.

[…] (CDR3 as printed); V11G derived by comparing it with the table's wild-type CDR3 AGPMKTSYDKVI was tested, and the enrichment [1] was 0.956 and the enrichment [2] was 0.

Variant […] (CDR3 as printed); V11L derived by comparing it with the table's wild-type CDR3 AGPMKTSYDKVI has an enrichment [1] of 0.656 and an enrichment [2] of 0.

For […] (CDR3 as printed); I12E derived by comparing it with the table's wild-type CDR3 AGPMKTSYDKVI, the enrichment [1] was 1.18 and the enrichment [2] was 0.

[…] (CDR3 as printed); Y8Q derived by comparing it with the table's wild-type CDR3 AGPMKTSYDKVI gave an enrichment [1] of 0.629 and an enrichment [2] of 0.

Variant […] (CDR3 as printed); M4W derived by comparing it with the table's wild-type CDR3 AGPMKTSYDKVI has an enrichment [1] of 0.861 and an enrichment [2] of 0.

For […] (CDR3 as printed); D9K derived by comparing it with the table's wild-type CDR3 AGPMKTSYDKVI, the enrichment [1] was 0.961 and the enrichment [2] was 0.

Work on […] (CDR3 as printed); Y8I derived by comparing it with the table's wild-type CDR3 AGPMKTSYDKVI yielded an enrichment [1] of 1.11 and an enrichment [2] of 0.

Work on […] (CDR3 as printed); I12A derived by comparing it with the table's wild-type CDR3 AGPMKTSYDKVI yielded an enrichment [1] of 0.854 and an enrichment [2] of 0.

In the case of […] (CDR3 as printed); M4Q derived by comparing it with the table's wild-type CDR3 AGPMKTSYDKVI, the enrichment [1] is reported as 0.551 and the enrichment [2] is reported as 0.

Work on […] (CDR3 as printed); S7R derived by comparing it with the table's wild-type CDR3 AGPMKTSYDKVI yielded an enrichment [1] of 0.927 and an enrichment [2] of 0.

[…] (CDR3 as printed); I12Y derived by comparing it with the table's wild-type CDR3 AGPMKTSYDKVI showed an enrichment [1] of 1.06 and an enrichment [2] of 0.

Variant […] (CDR3 as printed); D9F derived by comparing it with the table's wild-type CDR3 AGPMKTSYDKVI has an enrichment [1] of 1.2 and an enrichment [2] of 0.

[…] (CDR3 as printed); S7D derived by comparing it with the table's wild-type CDR3 AGPMKTSYDKVI gave an enrichment [1] of 0.804 and an enrichment [2] of 0.

With […] (CDR3 as printed); V11E derived by comparing it with the table's wild-type CDR3 AGPMKTSYDKVI the enrichment [1] was 1.34 and the enrichment [2] was 0.

With […] (CDR3 as printed); P3K derived by comparing it with the table's wild-type CDR3 AGPMKTSYDKVI the enrichment [1] was 1.01 and the enrichment [2] was 0.

Work on […] (CDR3 as printed); D9P derived by comparing it with the table's wild-type CDR3 AGPMKTSYDKVI yielded an enrichment [1] of 1.22 and an enrichment [2] of 0.

In the case of […] (CDR3 as printed); G2M derived by comparing it with the table's wild-type CDR3 AGPMKTSYDKVI, the enrichment [1] is reported as 1.1 and the enrichment [2] is reported as 0.

[…] (CDR3 as printed); M4C derived by comparing it with the table's wild-type CDR3 AGPMKTSYDKVI showed an enrichment [1] of 0.681 and an enrichment [2] of 0.

For […] (CDR3 as printed); I12S derived by comparing it with the table's wild-type CDR3 AGPMKTSYDKVI, the enrichment [1] was 0.885 and the enrichment [2] was 0.

With […] (CDR3 as printed); G2I derived by comparing it with the table's wild-type CDR3 AGPMKTSYDKVI the enrichment [1] was 1.1 and the enrichment [2] was 0.

Variant […] (CDR3 as printed); I12L derived by comparing it with the table's wild-type CDR3 AGPMKTSYDKVI has an enrichment [1] of 0.907 and an enrichment [2] of 0.

[…] (CDR3 as printed); V11D derived by comparing it with the table's wild-type CDR3 AGPMKTSYDKVI was tested, and the enrichment [1] was 0.904 and the enrichment [2] was 0.

In the case of […] (CDR3 as printed); K10C derived by comparing it with the table's wild-type CDR3 AGPMKTSYDKVI, the enrichment [1] is reported as 1.06 and the enrichment [2] is reported as 0.

For […] (CDR3 as printed); K10H derived by comparing it with the table's wild-type CDR3 AGPMKTSYDKVI, the enrichment [1] was 0.835 and the enrichment [2] was 0.

In the case of […] (CDR3 as printed); K10E derived by comparing it with the table's wild-type CDR3 AGPMKTSYDKVI, the enrichment [1] is reported as 1.27 and the enrichment [2] is reported as 0.

Work on […] (CDR3 as printed); I12M derived by comparing it with the table's wild-type CDR3 AGPMKTSYDKVI yielded an enrichment [1] of 0.63 and an enrichment [2] of 0.

[…] (CDR3 as printed); K10I derived by comparing it with the table's wild-type CDR3 AGPMKTSYDKVI gave an enrichment [1] of 1.1 and an enrichment [2] of 0.

[…] (CDR3 as printed); A1K derived by comparing it with the table's wild-type CDR3 AGPMKTSYDKVI gave an enrichment [1] of 1 and an enrichment [2] of 0.

Variant […] (CDR3 as printed); T6S derived by comparing it with the table's wild-type CDR3 AGPMKTSYDKVI has an enrichment [1] of 1.05 and an enrichment [2] of 0.

Work on […] (CDR3 as printed); G2S derived by comparing it with the table's wild-type CDR3 AGPMKTSYDKVI yielded an enrichment [1] of 1.02 and an enrichment [2] of 0.

[…] (CDR3 as printed); S7M derived by comparing it with the table's wild-type CDR3 AGPMKTSYDKVI was tested, and the enrichment [1] was 1.3 and the enrichment [2] was 0.
